Experimental data reported in paper PMC6476931, “The Complex Fibrinogen Interactions of the Staphylococcus aureus Coagulases” (Frontiers in Cellular and Infection Microbiology, 2019).

B1: GST-Coa-C (C-terminal half of Coa) (domain or fragment)
chain: ETETKSPVVKEEKKVEEPQAPKVDNQQEVKTTAGKAEETTQPVAQPLVKIPQGTITGEIVKGPEYPTMENKTVQGEIVQGPDFLTMEQSGPSLSNNYTNPPLTNPILEGLEGSSSKLEIKPQGTESTLKGTQGESSDIEVKPQATETTEASQYGPRPQFNKTPKYVKYRDAGTGIREYNDGTFGYEARPRFNKPSETNAYNVTTHANGQVSYGARPTYKKPSETNAYNVTTHANGQVSYGARPTQNKPSKTNAYNVTTHGNGQVSYGARPTQNKPSKTNAYNVTTHANGQVSYGARPTYKKPSKTNAYNVTTHADGTATYGPRVTK
modifications: plasma-purified hexamer (AαBβγ)2, disulfide-linked, N-glycosylated, fibrinopeptides A and B retained. Predominant plasma forms assumed: 610-residue Aα and 411-residue γA (the P02679 canonical …)
B2: GST-Coa-N (N-terminal half of Coa) (domain or fragment)
chain: IVTKDYSGKSQVNAGSKNGTLIDSRYLNSALYYLEDYIIYAIGLTNKYEYGDNIYKEAKDRLLEKVLREDQYLLERKKSQYEDYKQWYANYKKENPRTDLKMANFHKYNLEELSMKEYNELQDALKRALDDFHREVKDIKDKNSDLKTFNAAEEDKATKEVYDLVSEIDTLVVSYYGDKDYGEHAKELRAKLDLILGDTDNPHKITNERIKKEMIDDLNSIIDDFFMETKQNRPKSITKYNPTTHNYKTNSDNKPNFDKLVEETKKAVKEADDSWKKKTVKKYG
modifications: plasma-purified hexamer (AαBβγ)2, disulfide-linked, N-glycosylated, fibrinopeptides A and B retained. Predominant plasma forms assumed: 610-residue Aα and 411-residue γA (the P02679 canonical …)
B3: Human fibrinogen (complex)
chain 1: ADSGEGDFLAEGGGVRGPRVVERHQSACKDSDWPFCSDEDWNYKCPSGCRMKGLIDEVNQDFTNRINKLKNSLFEYQKNNKDSHSLTTNIMEILRGDFSSANNRDNTYNRVSEDLRSRIEVLKRKVIEKVQHIQLLQKNVRAQLVDMKRLEVDIDIKIRSCRGSCSRALAREVDLKDYEDQQKQLEQVIAKDLLPSRDRQHLPLIKMKPVPDLVPGNFKSQLQKVPPEWKALTDMPQMRMELERPGGNEITRGGSTSYGTGSETESPRNPSSAGSWNSGSSGPGSTGNRNPGSSGTGGTATWKPGSSGPGSTGSWNSGSSGTGSTGNQNPGSPRPGSTGTWNPGSSERGSAGHWTSESSVSGSTGQWHSESGSFRPDSPGSGNARPNNPDWGTFEEVSGNVSPGTRREYHTEKLVTSKGDKELRTGKEKVTSGSTTTTRRSCSKTVTKTVIGPDGHKEVTKEVVTSEDGSDCPEAMDLGTLSGIGTLDGFRHRHPDEAAFFDTASTGKTFPGFFSPMLGEFVSETESRGSESGIFTNTKESSSHHPGIAEFPSRGKSSSYSKQFTSSTSYNRGDSTFESKSYKMADEAGSEADHEGTHSTKRGHAKSRPV
chain 2: QGVNDNEEGFFSARGHRPLDKKREEAPSLRPAPPPISGGGYRARPAKAAATQKKVERKAPDAGGCLHADPDLGVLCPTGCQLQEALLQQERPIRNSVDELNNNVEAVSQTSSSSFQYMYLLKDLWQKRQKQVKDNENVVNEYSSELEKHQLYIDETVNSNIPTNLRVLRSILENLRSKIQKLESDVSAQMEYCRTPCTVSCNIPVVSGKECEEIIRKGGETSEMYLIQPDSSVKPYRVYCDMNTENGGWTVIQNRQDGSVDFGRKWDPYKQGFGNVATNTDGKNYCGLPGEYWLGNDKISQLTRMGPTELLIEMEDWKGDKVKAHYGGFTVQNEANKYQISVNKYRGTAGNALMDGASQLMGENRTMTIHNGMFFSTYDRDNDGWLTSDPRKQCSKEDGGGWWYNRCHAANPNGRYYWGGQYTWDMAKHGTDDGVVWMNWKGSWYSMRKMSMKIRPFFPQQ
chain 3: YVATRDNCCILDERFGSYCPTTCGIADFLSTYQTKVDKDLQSLEDILHQVENKTSEVKQLIKAIQLTYNPDESSKPNMIDAATLKSRKMLEEIMKYEASILTHDSSIRYLQEIYNSNNQKIVNLKEKVAQLEAQCQEPCKDTVQIHDITGKDCQDIANKGAKQSGLYFIKPLKANQQFLVYCEIDGSGNGWTVFQKRLDGSVDFKKNWIQYKEGFGHLSPTGTTEFWLGNEKIHLISTQSAIPYALRVELEDWNGRTSTADYAMFKVGPEADKYRLTYAYFAGGDAGDAFDGFDFGDDPSDKFFTSHNGMQFSTWDNDNDKFEGNCAEQDGSGWWMNKCHAGHLNGVYYQGGTYSKASTPNGYDNGIIWATWKTRWYSMKKTTMKIIPFNRLTIGEGQQHHLGGAKQAGDV
modifications: plasma-purified hexamer (AαBβγ)2, disulfide-linked, N-glycosylated, fibrinopeptides A and B retained. Predominant plasma forms assumed: 610-residue Aα and 411-residue γA (the P02679 canonical …)

Experiments:
Details in all cases: both partners purified
Human fibrinogen = Human fibrinogen (human, UniProt P02671 36-866; P02675 45-491; P02679 27-453); experiment: ELISA; Fg coated on wells (5 μg/ml, 0.5 μg/well); GST-vWbp or GST-Coa proteins in 1% BSA, 0.05% Tween 20, TBS, 1 h at room temperature; detected with HRP anti-GST; one-site fit, apparent KD, mean of three experiments
[1] = molecular target: T1, GST-Coa (full-length Coagulase) (S. aureus strain Newman); experiment: ELISA; GST-vWbp or GST-Coa coated on wells (5 μg/ml, 0.5 μg/well); soluble Fg in 1% BSA, 0.05% Tween 20, TBS; detected with HRP anti-human Fg; one-site fit, apparent KD, mean of three experiments
T1 construct: Coagulase (Coa), S. aureus strain Newman, coa gene amplified from chromosomal DNA; cloning described in Ko et al., 2016; the recombinant protein probably lacks it; also called intact Coa; source: E. coli BL21 (DE3)-derivative Acella, purified (glutathione-Sepharose 4B, gel permeation); not shown: GST, N-terminal, kept

[2] = molecular target: T2, GST-vWbp (full-length von Willebrand factor binding protein) (S. aureus strain Newman); experiment: as above
T2 construct: Cloned in pGEX-5x-1; also called full-length vWbp; source: E. coli BL21 (DE3)-derivative Acella, purified (glutathione-Sepharose 4B, gel permeation); not shown: GST, N-terminal, kept

[3] = molecular target: T1, GST-Coa (full-length Coagulase); experiment: ELISA; Fg coated on wells (5 μg/ml, 0.5 μg/well); GST-vWbp or GST-Coa proteins in 1% BSA, 0.05% Tween 20, TBS, 1 h at room temperature; detected with HRP anti-GST; one-site fit, apparent KD, mean of three experiments
[4] = molecular target: T2, GST-vWbp (full-length von Willebrand …); experiment: as above

Sequence of Human fibrinogen (P02671 36-866, one chain of several): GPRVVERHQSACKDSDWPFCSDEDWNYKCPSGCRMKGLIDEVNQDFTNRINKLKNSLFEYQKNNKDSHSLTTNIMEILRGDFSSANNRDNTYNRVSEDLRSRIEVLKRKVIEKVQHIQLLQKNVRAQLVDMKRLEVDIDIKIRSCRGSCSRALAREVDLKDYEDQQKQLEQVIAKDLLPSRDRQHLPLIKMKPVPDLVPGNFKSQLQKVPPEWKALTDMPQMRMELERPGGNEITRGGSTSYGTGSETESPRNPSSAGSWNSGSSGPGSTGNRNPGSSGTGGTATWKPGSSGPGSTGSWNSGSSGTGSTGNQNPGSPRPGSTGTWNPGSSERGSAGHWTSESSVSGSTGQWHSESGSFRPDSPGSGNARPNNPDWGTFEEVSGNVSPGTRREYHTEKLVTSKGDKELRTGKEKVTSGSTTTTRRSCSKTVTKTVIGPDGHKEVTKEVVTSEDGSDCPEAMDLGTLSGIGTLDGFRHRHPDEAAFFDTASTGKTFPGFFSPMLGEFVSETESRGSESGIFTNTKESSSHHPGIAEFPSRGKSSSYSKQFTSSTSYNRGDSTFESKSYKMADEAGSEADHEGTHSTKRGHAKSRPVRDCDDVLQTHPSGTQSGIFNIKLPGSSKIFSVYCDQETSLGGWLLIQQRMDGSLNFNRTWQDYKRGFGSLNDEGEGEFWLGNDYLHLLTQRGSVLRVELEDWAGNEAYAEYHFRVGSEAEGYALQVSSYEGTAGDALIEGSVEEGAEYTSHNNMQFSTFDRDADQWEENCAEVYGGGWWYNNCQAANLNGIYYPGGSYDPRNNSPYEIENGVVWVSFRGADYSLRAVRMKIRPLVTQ

Binder	Kd (Human fibrinogen)	Kd [1]	Kd [2]	Kd [3]	Kd [4]
B1	0.46 nM	–	–	–	–
B2	20 nM	–	–	–	–
B3	–	0.09 nM	5.3 nM	2.4 nM	9.9 nM
